Data on five molecules can be found in PMC11144202, “Highly biased agonism for GPCR ligands via nanobody tethering” (Nature Communications, 2024).

Experiment [1] addresses T1, native human type-1 parathyroid hormone receptor (hPTHR1) (Homo sapiens, UniProt Q03431).
T1 construct: type-1 parathyroid hormone receptor, human, unmodified receptor on the cell surface; also called WT PTHR1; WT-PTHR1; source: HEK293 (GS22) cells, stably expressing, on cells
Briefly: flow cytometry on cells; biotin-labeled Nbs or conjugates (500 nM in Fig. 4A, or varying concentrations) incubated 30 min on ice in PBS with 2% BSA with HEK293 cells stably expressing the receptor; detection with streptavidin-APC. To be noted: one partner purified. Background: In flow cytometry, cells or beads pass a laser one at a time.

Experiment [2] addresses T2, glucagon-like peptide-1 receptor (GLP1R) (UniProt P43220 24-463).
T2 chain: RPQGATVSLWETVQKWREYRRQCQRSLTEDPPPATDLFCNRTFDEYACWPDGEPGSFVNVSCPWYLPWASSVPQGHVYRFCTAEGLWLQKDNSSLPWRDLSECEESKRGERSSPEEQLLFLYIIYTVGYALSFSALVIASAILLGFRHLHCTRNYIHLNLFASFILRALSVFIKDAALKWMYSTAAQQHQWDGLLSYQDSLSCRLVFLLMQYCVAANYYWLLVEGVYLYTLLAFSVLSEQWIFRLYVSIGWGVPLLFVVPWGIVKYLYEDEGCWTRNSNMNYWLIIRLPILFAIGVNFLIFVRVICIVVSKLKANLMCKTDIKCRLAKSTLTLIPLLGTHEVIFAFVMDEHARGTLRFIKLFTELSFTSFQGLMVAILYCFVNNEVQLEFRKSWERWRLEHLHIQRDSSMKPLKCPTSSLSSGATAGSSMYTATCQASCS
Briefly: SPR; GLP1R-ECD; replicate 1. A general note: Surface plasmon resonance follows binding to a sensor surface in real time, without labels.

Experiment [3] concerns the target T2, glucagon-like peptide-1 receptor (GLP1R). Kind of experiment: SPR; GLP1R-ECD; replicate 2.
Experiment [4] shares this target. Kind of experiment: SPR; GLP1R-ECD; replicate 1.
Experiment [5] shares this target. Kind of experiment: SPR; GLP1R-ECD; replicate 2.
Experiment [6] deals with T3, PTHR1 extracellular domain (ECD) (Homo sapiens).
T3 construct: extracellular domain of the type-1 parathyroid hormone receptor; also called PTHR1 ECD; PTHR1 (ECD)
T3 chain: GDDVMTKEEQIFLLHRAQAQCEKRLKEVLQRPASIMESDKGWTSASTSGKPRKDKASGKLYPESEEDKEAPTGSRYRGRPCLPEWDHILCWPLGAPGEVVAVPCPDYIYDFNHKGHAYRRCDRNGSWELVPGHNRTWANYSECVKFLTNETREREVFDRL
Kind of experiment: SPR; Nb_(PTHR1) and PTHR1 ECD; details in Supplementary Methods. The note with it: both partners purified.

Experiment [7] has as its target T4, PTHR1 extracellular domain (ECD).
T4 chain: T3 chain
Briefly: SPR; replicate 1; biotinylated Nb immobilized.

Experiment [8] shares this target. Briefly: SPR; replicate 2; biotinylated Nb immobilized.
Experiment [9] shares this target. Kind of experiment: SPR; replicate 1; biotinylated Nb immobilized.
Experiment [10] shares this target. Briefly: SPR; replicate 2; biotinylated Nb immobilized.
Experiment [11] shares this target. Kind of experiment: SPR; mean of two experiments; biotinylated Nb immobilized.
Experiment [12] deals with T5, nanoluciferase-PTHR1 fusion (nLuc-PTHR1) (Homo sapiens, UniProt Q03431).
T5 construct: type-1 parathyroid hormone receptor with nanoluciferase fused to the receptor N-terminus; source: cell line stably expressing the construct, on cells; not shown: nanoluciferase, N-terminal, kept
T5 sequence (Q03431 27-593): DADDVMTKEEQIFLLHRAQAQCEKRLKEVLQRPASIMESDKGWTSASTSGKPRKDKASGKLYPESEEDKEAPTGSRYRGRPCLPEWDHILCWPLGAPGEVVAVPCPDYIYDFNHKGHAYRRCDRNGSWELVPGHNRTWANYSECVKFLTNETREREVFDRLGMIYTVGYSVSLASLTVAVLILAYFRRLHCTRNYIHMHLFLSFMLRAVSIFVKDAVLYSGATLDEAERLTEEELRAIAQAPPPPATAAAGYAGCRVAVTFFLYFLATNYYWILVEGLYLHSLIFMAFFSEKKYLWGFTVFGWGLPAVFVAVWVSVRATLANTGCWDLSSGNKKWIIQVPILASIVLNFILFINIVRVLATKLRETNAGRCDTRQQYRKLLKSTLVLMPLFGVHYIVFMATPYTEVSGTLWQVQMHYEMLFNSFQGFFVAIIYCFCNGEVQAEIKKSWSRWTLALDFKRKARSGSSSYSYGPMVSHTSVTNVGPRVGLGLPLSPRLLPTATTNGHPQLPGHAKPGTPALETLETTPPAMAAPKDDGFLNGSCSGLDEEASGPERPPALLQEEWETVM
Kind of experiment: FRET or BRET; competition on cells expressing nLuc-PTHR1: Nb_(PTHR1)-TMR (1 uM) followed by unlabeled ligand (2 uM), or varying unlabeled ligand added together with Nb_(PTHR1)-TMR (300 nM). The note with it: one partner purified. For orientation: In BRET a luciferase serves as donor, and the signal depends on an acceptor being close.

T1 sequence (Q03431 27-593): as above

B1: Nb_(PTHR1-X2) labeled with biotin (VHH)
VHH: EVQLVESGGGLVQAGGSLRLSCAASGLTFSNYAMGWFRQAPGKEREWVASINWSGGSTYYEDSVEGRFTISRDNAKNTVNLQMNSLKPEDTAVYYCAAKRGHYSREYDYWGQGTQVTVSS
notes: as the chain of m8; His6 is lost in the sortase reaction; also called Nb_(PTHR-X2); source: E. coli BL21(DE3), purified (Ni-NTA, SEC), labeled by sortagging; not shown: His6, C-terminal, cleaved
In the case of B1, the binding result in experiment [1] is “binds”.

B2: Nb_(GLP1R) (VHH)
VHH: EVQLVESGGGLVQAGGSLRLSCAASGNTYSYKVMGWFRQAPGKEREFVGIIIRNGDTTYYADSVKGRFTISADNAKNTVYLQMNSLKPEDTAVYYCAASPKYMTAYERSYDWGQGTQVTVSS
In the case of B2, the off-rate (koff) in experiment [2] amounted to 0.0041 s⁻¹; in experiment [3] it was 0.0013 s⁻¹. Further, the equilibrium dissociation constant (Kd) stood at 24 nM in [4] and 32 nM in experiment [5].

B3: Nb_(PTHR1), unlabeled (VHH)
VHH: EVQLVESGGGLVQAGGSLRLSCAASGNIFANNIMGWYRQPPGKEREFVAHVSHDGDSMYAVSVKGRFAISRKDATNLYLQMNSLKPEDTAIYFCRLLNIPTQGRMEGFWGQGTQVTVSS
notes: Expressed from pET26b in frame with pelB and His6; the Nbs for sortagging bear LPETGG followed by His6 at the C-terminus; also called VHH_(PTHR); source: E. coli BL21(DE3), purified (Ni-NTA, SEC)
As for B3, the equilibrium dissociation constant (Kd) in experiment [6] was roughly 1 nM; in experiment [7], 0.5 nM; in experiment [8], 0.9 nM; in experiment [11], 0.7 nM. Moreover, the koff worked out at 0.0065 s⁻¹ in experiment [9] and 0.0015 s⁻¹ in experiment [10].

B4: Nb_(PTHR1)-TMR (tetramethylrhodamine-labeled Nb_(PTHR1)) (VHH)
VHH: B3 VHH
notes: as the chain of m5; His6 is lost in the sortase reaction; also called TMR-Nb_(PTHR1); source: E. coli BL21(DE3), purified (Ni-NTA, SEC), labeled by sortagging; not shown: His6, C-terminal, cleaved
On to B4, for which the binding result in [12] is given as “binds”.

B5: Nb_(PTHR1) labeled with biotin (VHH)
VHH: B3 VHH
notes: as the chain of m5; His6 is lost in the sortase reaction (unreacted protein is captured on nickel NTA beads); also called biotin-labeled Nb_(PTHR1); source: E. coli BL21(DE3), purified (Ni-NTA, SEC), labeled by sortagging; not shown: His6, C-terminal, cleaved
For the molecule B5, in [1], the binding result was “binds”.

A word on the koff: it is a measure of how fast the partners let go of each other. One may read the Kd as the constant that tells how readily two partners part at equilibrium. Read a high Kd as weaker binding.
